Several values for one entry are separate records, joined by “and”; a condition that tells them apart may be missing. Equal values may be shown once.

A word on the Kd: it is the concentration at which binding is half-saturated. As a reminder, the IC50 is the concentration needed to halve the response being measured.

In experiment [1] the target is 組換えヒトIL-5 (recombinant human interleukin-5) (human) (UniProt P05113). The experiment is described as follows: optical biosensor (BIAcore). (In SPR one partner is held on a chip, and binding of the other changes the refractive index at the surface.)
The target of experiment [2] is hIL-5/IL-5レセプターα鎖複合体 (hIL-5 captured on IL-5RαFc) (human) (UniProt P05113). Nature of the experiment: ELISA (europium fluorescence), IL-5RαFc on protein A + IL-5, mAb added; concentration 32 ng/ml. On the technique in general: In an ELISA, binding on a coated surface is turned into a signal by an enzyme label.
The target is the same in experiment [3]. Nature of the experiment: ELISA (europium fluorescence), IL-5RαFc on protein A + IL-5, mAb added; concentration 8 ng/ml.
Experiment [4] has the same target. The experiment is described as follows: ELISA (europium fluorescence), IL-5RαFc on protein A + IL-5, mAb added; concentration 0 ng/ml.
The target in experiment [5] is 組換えヒトIL-5 (recombinant human interleukin-5) (human) (UniProt P05113). The experiment is described as follows: cell-based or functional assay.
Experiment [6] has as its target hIL-5/IL-5レセプターα鎖複合体 (hIL-5 captured on IL-5RαFc) (human) (UniProt P05113). The experiment is described as follows: ELISA (europium fluorescence), IL-5RαFc on protein A + IL-5, mAb added; concentration 2 ng/ml.
Experiment [7] has as its target 組換えヒトIL-5 (recombinant human interleukin-5) (human) (UniProt P05113). Nature of the experiment: optical biosensor.
The target is the same in experiment [8]. Nature of the experiment: inhibition of 125I-IL-5 binding to IL-5Rα (Drosophila membranes), dose dependent.

B1: ネズミモノクローナル抗体2B6 (antibody, from another filing, V domains shown)
VH: QVQLKESGPGLVAPSQSLSITCTVSGFSLTSYSVHWVRQPPGKGLEWLGVIWASGGTDYNSALMSRLSISKDNSKSQVFLKLNSLQTDDTAMYYCARDPPSSLLRLDYWGQGTTLTVSS
VL: DIVMTQSPSSLSVSAGEKVTMSCKSSQSLLNSGNQKNYLAWYQQKPGQPPKLLIYGASTRESGVPDRFTGSGSGTDFTLSISSVQAEDLAVYYCQNVHSFPFTFGSGTELEIK
With B1, the dissociation constant (Kd) in experiment [1] is 0.022 nM and < 0.035 nM. Also, the 結合(個数) is 4980 個数 in experiment [2], 3200 個数 in experiment [3], 2770 個数 in experiment [4] and 2940 個数 in experiment [6]. Moreover, the ネズミB13の増殖の阻害 (B13 proliferation assay) in experiment [5] is above 70%.

B2: mAb 2B6から由来のFab (recombinant 2B6 Fab, hexa-His) (Fab, from another filing, V domains shown)
VH: QVQLKESGPGLVAPSQSLSITCTVSGFSLTSYSVHWVRQPPGKGLEWLGVIWASGGTDYNSALMSRLSISKDNSKSQVFLKLNSLQTDDTAMYYCARDPPSSLLRLDYWGQGTTLTVSS
VL: DIVMTQSPSSLSVSAGEKVTMSCKSSQSLLNSGNQKNYLAWYQQKPGQPPKLLIYGASTRESGVPDRFTGSGSGTDFTLSISSVQAEDLAVYYCQNVHSFPFTFGSGTELEIK
As to B2, the dissociation constant (Kd) in experiment [7] was found to be 0.09 nM. In experiment [8], the concentration for half-maximal inhibition (IC50) was 7.5 µg/mL.

B3: ネズミモノクローナル抗体2E3 (antibody, from another filing, mouse IgG2a, V domains shown)
VH: PGLVAPSQSLSITCTVSGFSLTSYSVHWVRQPPGKGLEWLGVIWASGGTDYNSALMSRLSISKDNSKSQVFLKLNSLQTDDAAMYYCARDPPFSLLRLDFWGQGTTLTVSS
VL: SSLSVSAGEKVTMSCKSSQSLLNSGNQKNYLAWYQQKPGQPPKLLIYGASTRESGVPDRFTGSGSGTDFTLTISSVQAEDLAVYYCQNDHSFPFTFGSGTELEIK
In the case of B3, the dissociation constant (Kd) in experiment [1] was 0.02 nM and < 0.035 nM. Also, the ネズミB13の増殖の阻害 (B13 proliferation assay) in experiment [5] is above 70%.

B4: ネズミモノクローナル抗体2F2 (antibody, from another filing, V domains shown)
VH: PGLVAPSQSLSITCTVSGFSLTSYSVHWVRQPPGKGLEWLGVIWASGGTDYNSALMSRLSISKDNSKSQVFLKLNSLRTDDTAMYYCARDPPSSLLRLDYWGQGTTLTVSS
VL: SSLSVSAGEKVTMSCKSSQSLLNSGNQKNYLAWYQQKPGQPPKLLIYGASTRESGVPDRFTGSGSGTDFTLTISSVQAEDLAVYYCQNDHSFPFTFGSGTELEIK
As to B4, the ネズミB13の増殖の阻害 (B13 proliferation assay) in experiment [5] was above 70%.

Source of the values: JP2000515494A.
